B1: ketosteroid isomerase (KSI) Y32F/Y57F (enzyme, Pseudomonas putida)
chain: MNLPTAQEVQGLMARYIELVDVGDIEAIVQMFADDATVEDPFGQPPIHGREQIAAFFRQGLGGGKVRACLTGPVRASHNGCGAMPFRVEMVWNGQPCALDVIDVMRFDEHGRIQTMQAYWSEVNLSVREPQ
B2: ketosteroid isomerase (KSI) Y57F (enzyme, Pseudomonas putida)
chain: MNLPTAQEVQGLMARYIELVDVGDIEAIVQMYADDATVEDPFGQPPIHGREQIAAFFRQGLGGGKVRACLTGPVRASHNGCGAMPFRVEMVWNGQPCALDVIDVMRFDEHGRIQTMQAYWSEVNLSVREPQ
B3: ketosteroid isomerase (KSI) Y57F/D40N (enzyme, Pseudomonas putida)
chain: LPTAQEVQGLMARYIELVDVGDIEAIVQMYADDATVENPFGQPPIHGREQIAAFFRQGLGGGKVRACLTGPVRASHNGCGAMPFRVEMVWNGQPCALDVIDVMRFDEHGRIQTMQAYWSEVNLSVREPQ

Biological target: the molecule itself
Experiment: crystal structure

**Q.** For B1, which “stoichiometry N” value is on record?
**A.** The value was 2.

**Q.** For B2, which “stoichiometry N” value is on record?
**A.** Its value is 2.

**Q.** Which “stoichiometry N” value does the source give for B3 here?
**A.** Its value is 2.

Source: article doi:10.1101/2021.09.29.461692 (bioRxiv, 2021)
